This is an account of results in US20200369737A1 (published 2020).

Holding throughout (assay): sandwich ELISA; receptor ECD/Fc chimera captured on anti-Fc plates, biotin-labeled ligand titrated, streptavidin-HRP detection
(In general: An ELISA detects its analyte on a solid surface through an enzyme-linked reagent.)

Assay [1] concerns the target T1, recombinant human HER3/Fc chimera (receptor extracellular domain/Fc chimera) (human, UniProt P21860 20-643).
T1 construct: extracellular domain; Bought from R&D Systems; Captured on plates coated with anti-Fc antibody; not shown: Fc part (and any linker) of the purchased R&D Systems chimera

The target in assay [2] is T2, recombinant human HER4/Fc chimera (receptor extracellular domain/Fc chimera) (human, UniProt Q15303 26-651).
T2 construct: extracellular domain; Bought from R&D Systems; Captured on plates coated with anti-Fc antibody; not shown: Fc part (and any linker) of the purchased R&D Systems chimera
T2 sequence (looked up): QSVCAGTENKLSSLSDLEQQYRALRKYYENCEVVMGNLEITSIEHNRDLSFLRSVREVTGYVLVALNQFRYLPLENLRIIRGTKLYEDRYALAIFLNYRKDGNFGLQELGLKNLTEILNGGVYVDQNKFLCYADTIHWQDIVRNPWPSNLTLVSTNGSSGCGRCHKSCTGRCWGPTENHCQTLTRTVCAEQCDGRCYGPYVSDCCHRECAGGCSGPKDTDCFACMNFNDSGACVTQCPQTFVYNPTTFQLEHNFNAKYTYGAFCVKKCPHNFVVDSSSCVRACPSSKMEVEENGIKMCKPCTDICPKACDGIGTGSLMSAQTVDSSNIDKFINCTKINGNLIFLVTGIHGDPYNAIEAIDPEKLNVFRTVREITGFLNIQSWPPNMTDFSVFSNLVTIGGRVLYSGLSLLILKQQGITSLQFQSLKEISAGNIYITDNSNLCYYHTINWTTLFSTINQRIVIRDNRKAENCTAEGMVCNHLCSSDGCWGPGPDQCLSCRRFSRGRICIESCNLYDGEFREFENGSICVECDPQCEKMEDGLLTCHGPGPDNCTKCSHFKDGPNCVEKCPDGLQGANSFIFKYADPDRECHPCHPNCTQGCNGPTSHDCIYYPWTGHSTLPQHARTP

The target in assay [3] is T3, recombinant human EGFR/Fc chimera (receptor extracellular domain/Fc chimera) (human, UniProt P00533 25-645).
T3 construct: extracellular domain; Bought from R&D Systems; Captured on plates coated with anti-Fc antibody; also called HER/Fc chimera-EGFR; HER1; not shown: Fc part (and any linker) of the purchased R&D Systems chimera

Broadly, the Kd is the equilibrium constant for the complex coming apart.

T1 sequence (P21860 20-643, change not shown): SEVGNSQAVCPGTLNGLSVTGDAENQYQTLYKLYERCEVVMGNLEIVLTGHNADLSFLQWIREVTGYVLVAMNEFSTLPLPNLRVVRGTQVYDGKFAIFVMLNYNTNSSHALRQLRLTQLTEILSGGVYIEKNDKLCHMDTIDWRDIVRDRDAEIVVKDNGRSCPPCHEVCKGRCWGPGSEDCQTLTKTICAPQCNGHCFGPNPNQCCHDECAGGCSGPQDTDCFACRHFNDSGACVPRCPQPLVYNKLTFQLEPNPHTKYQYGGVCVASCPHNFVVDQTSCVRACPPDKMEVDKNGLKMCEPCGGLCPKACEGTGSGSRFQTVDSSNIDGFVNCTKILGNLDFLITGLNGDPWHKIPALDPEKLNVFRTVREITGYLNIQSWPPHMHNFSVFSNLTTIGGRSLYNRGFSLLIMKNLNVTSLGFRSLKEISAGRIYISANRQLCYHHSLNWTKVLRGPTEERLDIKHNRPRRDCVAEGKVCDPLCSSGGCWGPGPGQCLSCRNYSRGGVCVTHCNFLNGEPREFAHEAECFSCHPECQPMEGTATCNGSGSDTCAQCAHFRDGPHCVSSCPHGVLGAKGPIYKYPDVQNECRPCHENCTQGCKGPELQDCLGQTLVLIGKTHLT

B1: Pan-HER DNL B5-3M2 tagged with biotin (ligand)
chain: NSDSECPLSHDGYCLNDGVCMYTEAKDEYACNCVVGYIGERCQYYDLL
modifications: not fully specified; biotin label; paragraph 113 says derivatized at the N-terminus; paragraph 97 says B5-3M2 has two sites for biotinylation, the N terminus and K26
notes: Made in E. coli; also called tagged (biotinylated) DNL; EGF1-48 H16N, I23T, L26K, K28E, R45Y, K48L
On to B1, for which the figures for the Kd in assay [1], in assay [2] and in assay [3] were 6 nM, 4 nM and 5 nM, respectively.
